Measurements from patent US7056679 (ANTYRA, dated 2006).

T1: DGI-2 polypeptide (UniProt Q15004 1-111, limits assumed)
T1 construct: Soluble recombinant protein coated at 500 ng/well; vector tag of pIVEX2.3-MCS not described for this construct; also called KIAA0101
T1 sequence (looked up): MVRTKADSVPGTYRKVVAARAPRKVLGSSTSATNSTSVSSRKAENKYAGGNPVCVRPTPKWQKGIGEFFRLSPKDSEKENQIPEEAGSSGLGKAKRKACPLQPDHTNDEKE

T2: DGI-2 polypeptide (UniProt Q15004 1-111, limits assumed)
T2 construct: Vector-derived residues or tag of pIVEX2.3 are not described for this construct; also called KIAA0101
T2 sequence (looked up): T1 sequence (looked up)

B1: DGI-2-20R-3-B12 (peptide)
peptide: DGKHLTKWSGRGWWSAWVGGAAAGAPVPYPDPLEPRP
B2: DGI-2-20F-3-C1 (peptide)
peptide: GSVLERGCLEFSGFCFSLGHAAAGAPVPYPDPLEPRP
notes: not shown: phage gene III coat protein (pCANTAB5E)
B3: DGI-2-20R-3-A6 (peptide)
peptide: GGGRESWGGGWFMGWGSGAGAAAGAPVPYPDPLEPRP
B4: DGI-2-20R-4-E82 (peptide)
peptide: DAGIGWVGSMWFPPGCIGACAAAGAPVPYPDPLEPRP
notes: as for B2
B5: DGI-2-20R-3-C4 (peptide)
peptide: SRPGWCSRGTAWGFPGCSSSAAAGAPVPYPDPLEPRP
B6: DGI-2-20F-4-E3 (peptide)
peptide: RNWLDKDCVWMGDCGARAGEAAAGAPVPYPDPLEPRP
notes: as for B2
B7: DGI-2-40F-3-C424 (peptide)
peptide: TVKFQGVVQERSRIAGFRYCGDHAVSWGLAGCPALRDKLQAAAGAPVPYPDPLEPRP
B8: DGI-2-20R-3-C7 (peptide)
peptide: MGVVLECEGGWSIPGQTCYFAAAGAPVPYPDPLEPRP
B9: DGI-2-20R-3-A7 (peptide)
peptide: VLQRSLWKDWVDGVMHGGGSRGVAAAGAPVPYPDPLEPRP
B10: DGI-2-40F-3-C8 (peptide)
peptide: YGTAGLFLRRACTMSDPGDPLGRRGYTGWGVLWDEWVTGSAAAGAPVPYPDPLEPRP
B11: DGI-2-20R-3-B3 (peptide)
peptide: MFQDVACDLWHSVRCLRRDVAAAGAPVPYPDPLEPRP
B12: DGI-2-20R-4-H12 (peptide)
peptide: MSTLQGPGHLFQMLRRASLGAAAGAPVPYPDPLEPRP
notes: as for B2
B13: DGI-2-40F-4-E62 (peptide)
peptide: TCWHRGLNVVRYSVNFGVRDARLTTQGMAWFPPGCGQGCVAAAGAPVPYPDPLEPRP
B14: DGI-2-20R-4-F1212 (peptide)
peptide: MSSTAWTDRILQRGIGLGPVAAAGAPVPYPDPLEPRP
B15: DGI-2-40F-3-D11 (peptide)
peptide: LHFGSVMGWRPPGSLWSRPFGQVHPRSWSGSAAAGAPVPYPDPLEPRP
notes: as for B2
B16: DGI-2-20R-3-C8 (peptide)
peptide: VVRQGCMAFSGLCSGVTESEAAAGAPVPYPDPLEPRP
B17: DGI-2-20C-3-C1039 (peptide)
peptide: RPVVCLAGLTLAQFGWVFPGWRGWSAAAGAPVPYPDPLEPRP
B18: DGI-2-20R-3-B11 (peptide)
peptide: GWGCSVPGILCVGGHRQGGGAAAGAPVPYPDPLEPRP
B19: DGI-2-20F-3-C12 (peptide)
peptide: LTPYSLARSWLSGRPSTGATAAAGAPVPYPDPLEPRP
notes: as for B2
B20: DGI-2-40F-3-D72 (peptide)
peptide: MGSLGPFGNINSLASGIGSVRNRPLLPLHGSPAAAGAPVPYPDPLEPRP
notes: as for B2
B21: DGI-2-40F-4-F6 (peptide)
peptide: SYRNFAMQSSLQVRRGSVVEDGTCWWEGVRCYSGAAAGAPVPYPDPLEPRP
notes: as for B2
B22: DGI-2-40F-3-A1 (peptide)
peptide: REFFNQASRGAWGYMFREWVEGAAAGAPVPYPDPLEPRP
B23: DGI-2-40F-4-F122 (peptide)
peptide: RSQVRVVSRERSTPVLHRIECLLFSGWCVTSGSDEGVVWGAAAGAPVPYPDPLEPRP
B24: DGI-2-20R-3-B7 (peptide)
peptide: SWRLWVSGELQGDRRKGLRGAAAGAPVPYPDPLEPRP
notes: as for B2
B25: DGI-2-20R-3-A9 (peptide)
peptide: LQIVRPAGWKMPGQVGYYIGAAAGAPVPYPDPLEPRP
notes: as for B2
B26: DGI-2-20F-4-F9 (peptide)
peptide: LPQSRWLSEAWASWVDGVVDAAAGAPVPYPDPLEPRP
B27: DGI-2-20R-3-D7 (peptide)
peptide: VHSQGRMWAIPGLRGGTGASAAAGAPVPYPDPLEPRP
B28: DGI-2-20R-4-G7 (peptide)
peptide: YTPASILTGFQRGYEGAGNGAAAGAPVPYPDPLEPRP
B29: DGI-2-20C-4-H316 (peptide)
peptide: RWSICRGLQYSIPGCAVEDLSDVMAAAAGAPVPYPDPLEPRP
notes: as for B2

Legend:
[1] = biological target: T3, lactate dehydrogenase (LDH); test: phage ELISA
T3 construct: Coated at 500 ng/well as non-specific target; also called LDH polypeptide
Method in brief: (§1)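 Phage from individual clones were bound for 2 h at RT to wells coated with 500 ng DGI-2, LDH (non-specific), anti-E-tag antibody (positive control) or milk (negative control). Bound phage were detected with HRP-anti-M13 and ABTS at A405; positive clones gave ≥2-fold signal over background.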

[2] = biological target: T4, antibody raised against ETAG; test: phage ELISA
T4 construct: Coated at 500 ng/well; also called E-tag antibody
Method in brief: as §1

DGI-2 polypeptide [3] = biological target: T1, DGI-2 polypeptide; test: phage ELISA
Method in brief: as §1

DGI-2 polypeptide [4] = biological target: T2, DGI-2 polypeptide; test: phage ELISA, 405 nm; DGI-2 signal over LDH signal
Protocol: (§2) For analysis of individual target binders, colonies were picked and phage prepared as described above using helper phage, M13KO7. Ninety-six-well microtiter plates were coated with 500 ng/well of specific target protein, 500 ng/well lactate dehydrogenase (LDH) irrelevant or non-specific target, 500 ng/well of positive control antibody raised against ETAG, and negative control of non-fat milk powder-PBS 2% at 4° C. overnight. Plates were then blocked with 350 microliters/well PBS containing 2% non-fat milk for 1 hr at room temperature. One hundred microliters per well of phage from isolated clones were added and plates were incubated at room temperature for 2 hr after centrifuging samples for 20 minutes at 3500 rpm at 4° C. The phage solution was then removed, and the wells were washed three times with PBS at room temperature. Antibody raised against M13 conjugated to horseradish peroxidase (Pharmacia) was diluted 1:3000 in PBS-Tween and added to each well (100 µl/well). Incubation was for 1 hr at room temperature, followed by washing with PBS-(0.5%) Tween 3 times as described. Color was developed by addition of ABTS solution (100 µl/well; Boehringer, Indianapolis, Ind.). Plates were analyzed at 405 nm. A clone was considered "positive" if the $A405$ of the well was $\geq$2-fold over background.

DGI-2 polypeptide [5] = biological target: T2, DGI-2 polypeptide; test: phage ELISA, 405 nm; DGI-2 coated
Protocol: as §2

[6] = biological target: T5, antibody raised against ETAG; test: phage ELISA, 405 nm; anti-E-tag antibody coated
T5 construct: read-out of display; also called E-tag antibody; E tag antibody
Protocol: as §2

Binder	LDH (OD) [1]	ETAG (OD) [2]	DGI-2 (OD) (DGI-2 polypeptide [3])	DGI-2/LDH (DGI-2 polypeptide [3])	DGI-2/LDH (OD) (DGI-2 polypeptide [4])	DGI-2 (OD) (DGI-2 polypeptide [5])	ETAG (OD) [6]
B1	1 OD	15.5 OD	5.7 OD	5.5 ratio	–	–	–
B2	–	–	–	–	3.4 ratio	3.4 OD	14 OD
B3	1 OD	17.7 OD	5.8 OD	5.9 ratio	–	–	–
B4	–	–	–	–	3.7 ratio	3.9 OD	19.6 OD
B5	1.1 OD	19.1 OD	4.5 OD	4.2 ratio	–	–	–
B6	–	–	–	–	4.1 ratio	3.8 OD	16.9 OD
B7	1.1 OD	14.8 OD	5.5 OD	5.2 ratio	–	–	–
B8	1 OD	18 OD	5.1 OD	5.1 ratio	–	–	–
B9	0.9 OD	13.9 OD	4.8 OD	5.1 ratio	–	–	–
B10	0.9 OD	13.6 OD	5.7 OD	6 ratio	–	–	–
B11	1 OD	16.1 OD	4.9 OD	4.8 ratio	–	–	–
B12	–	–	–	–	2.8 ratio	3.7 OD	10.9 OD
B13	1 OD	14.8 OD	4.6 OD	4.5 ratio	–	–	–
B14	1.2 OD	9.8 OD	4 OD	3.3 ratio	–	–	–
B15	–	–	–	–	2.9 ratio	3.8 OD	10.5 OD
B16	1.1 OD	21.1 OD	5.6 OD	5.3 ratio	–	–	–
B17	1 OD	11.8 OD	4.7 OD	4.7 ratio	–	–	–
B18	1 OD	16.9 OD	5.9 OD	5.7 ratio	–	–	–
B19	–	–	–	–	3.1 ratio	3.2 OD	15.1 OD
B20	–	–	–	–	2.8 ratio	3.1 OD	14 OD
B21	–	–	–	–	3.2 ratio	3.2 OD	13.5 OD
B22	0.9 OD	9.9 OD	4.5 OD	5.2 ratio	–	–	–
B23	0.8 OD	8.1 OD	4.7 OD	5.7 ratio	–	–	–
B24	–	–	–	–	3 ratio	3.1 OD	11.7 OD
B25	–	–	–	–	3.4 ratio	3.4 OD	14.3 OD
B26	1 OD	19.6 OD	5.6 OD	5.9 ratio	–	–	–
B27	1 OD	18.7 OD	5.2 OD	5.3 ratio	–	–	–
B28	1.2 OD	11.6 OD	4.7 OD	3.9 ratio	–	–	–
B29	–	–	–	–	3.9 ratio	3.8 OD	7.2 OD
